Patent US20200392228A1 (PANDION OPERATIONS, published 2020)

T1: CD25 (Homo sapiens (Human), UniProt P01589 22-240)
T1 construct: also called IL-2R alpha chain
T1 sequence: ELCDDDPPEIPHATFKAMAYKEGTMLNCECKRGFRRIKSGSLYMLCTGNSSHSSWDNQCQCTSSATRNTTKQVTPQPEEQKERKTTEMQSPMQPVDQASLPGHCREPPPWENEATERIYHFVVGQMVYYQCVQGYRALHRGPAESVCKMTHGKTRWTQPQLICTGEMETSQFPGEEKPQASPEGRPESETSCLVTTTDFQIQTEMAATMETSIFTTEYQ

T2: mouse MAdCAM expressed on cells (mouse, UniProt Q61826 22-405)
T2 construct: whole, on cells
T2 sequence (looked up): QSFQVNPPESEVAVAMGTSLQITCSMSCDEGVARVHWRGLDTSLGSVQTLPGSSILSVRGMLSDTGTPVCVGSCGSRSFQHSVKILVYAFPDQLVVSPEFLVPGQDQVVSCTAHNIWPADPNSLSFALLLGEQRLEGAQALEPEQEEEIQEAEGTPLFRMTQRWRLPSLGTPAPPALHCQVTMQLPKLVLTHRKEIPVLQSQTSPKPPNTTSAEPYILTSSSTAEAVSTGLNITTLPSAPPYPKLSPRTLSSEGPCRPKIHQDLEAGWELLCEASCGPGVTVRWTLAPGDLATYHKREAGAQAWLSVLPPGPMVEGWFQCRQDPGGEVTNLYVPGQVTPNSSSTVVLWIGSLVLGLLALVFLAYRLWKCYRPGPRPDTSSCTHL

T3: human MAdCAM expressed on cells (human, UniProt Q13477 19-382)
T3 construct: whole, on cells; also called MADCAM1
T3 sequence (looked up): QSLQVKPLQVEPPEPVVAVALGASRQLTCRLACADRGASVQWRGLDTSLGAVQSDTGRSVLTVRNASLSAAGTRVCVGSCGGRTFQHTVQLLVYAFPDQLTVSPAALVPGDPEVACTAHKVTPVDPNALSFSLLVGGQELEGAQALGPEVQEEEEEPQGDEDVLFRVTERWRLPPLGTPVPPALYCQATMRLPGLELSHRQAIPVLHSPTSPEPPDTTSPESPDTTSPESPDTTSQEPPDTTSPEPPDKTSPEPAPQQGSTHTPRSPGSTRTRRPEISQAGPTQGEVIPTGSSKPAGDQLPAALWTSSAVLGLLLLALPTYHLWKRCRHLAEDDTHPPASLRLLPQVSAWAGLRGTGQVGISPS

T4: human MAdCAM protein (human, UniProt Q13477 19-317)
T4 construct: used for Octet, SPR, ELISA and plate capture; construct not described; also called recombinant human MAdCAM; soluble monomeric human MAdCAM
T4 sequence (looked up): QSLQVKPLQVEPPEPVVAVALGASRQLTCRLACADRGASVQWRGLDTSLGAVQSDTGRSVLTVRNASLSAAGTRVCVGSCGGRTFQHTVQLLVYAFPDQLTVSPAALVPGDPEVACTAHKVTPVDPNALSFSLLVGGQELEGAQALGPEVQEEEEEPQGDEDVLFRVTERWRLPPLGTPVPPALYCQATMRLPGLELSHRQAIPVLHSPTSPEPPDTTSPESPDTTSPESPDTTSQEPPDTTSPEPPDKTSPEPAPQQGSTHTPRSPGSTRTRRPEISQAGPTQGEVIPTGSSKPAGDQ

T5: mouse MAdCAM protein (mouse, UniProt Q61826 22-365, limits assumed)
T5 construct: also called recombinant mouse MAdCAM-1; mMAdCAM-1
T5 sequence (looked up): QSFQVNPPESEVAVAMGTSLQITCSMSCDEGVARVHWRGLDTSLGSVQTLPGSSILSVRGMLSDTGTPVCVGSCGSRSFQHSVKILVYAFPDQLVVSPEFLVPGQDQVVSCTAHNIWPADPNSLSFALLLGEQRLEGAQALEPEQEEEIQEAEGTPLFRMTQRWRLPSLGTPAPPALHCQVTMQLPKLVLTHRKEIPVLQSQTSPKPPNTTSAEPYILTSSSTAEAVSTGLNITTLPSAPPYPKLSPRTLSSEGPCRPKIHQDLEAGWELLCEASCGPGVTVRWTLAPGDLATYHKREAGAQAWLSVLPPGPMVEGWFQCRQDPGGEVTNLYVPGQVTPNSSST


Columns and labels:
CD25 = target: T1, CD25; experiment: ELISA, plate-bound CD25
Description: An immunosorbent plate was coated with CD25 at a concentration of 0.5 μg/mL in PBS pH 7.4, 75 ul/well, and incubated overnight at 4° C. Wells were washed with PBS pH 7.4 containing 0.05% Tween-20 (wash buffer) three times, and then blocked with 200 ul/well 1% BSA in PBS pH 7.4 (block buffer) for two hours at room temperature. After three washes with wash buffer IL-2M molecules of Example 12 were diluted to eleven—two fold serial dilution in PBS containing 1% BSA and 0.05% Tween-20 (assay buffer) with 2 nM being the highest concentration. The diluted material was added to the CD25 coated plate at 75 ul/well for 1 hour at room temperature. After three washes with wash buffer, a goat biotinylated anti-IL-2 polyclonal antibody, diluted to 0.05 μg/mL in assay buffer, was added to the plate at 75 ul/well for 1 hr at room temperature. After three washes with wash buffer high sensitivity streptavidin HRP diluted in assay buffer at 1:5000 was added to the plate at 75 ul/well for 15 minutes at room temperature. After three washes with wash buffer and 1 wash with wash buffer (with no tween-20), the assay was developed with TMB, and stopped with 1N HCL. OD 450 nm was measured. The experiment included appropriate controls for non-specific binding of IL-2M molecules to the plate/block in the absence of CD25 and a negative control molecule that is unable to bind CD25.

[1] = target: T2, mouse MAdCAM expressed on cells; experiment: cell binding
[2] = target: T3, human MAdCAM expressed on cells; experiment: cell binding
human MAdCAM protein = target: T4, human MAdCAM protein; experiment: Octet
mouse MAdCAM protein = target: T5, mouse MAdCAM protein; experiment: Octet

| Binder | EC50 (CD25) [nM] | binding result [1] | binding result [2] | binding result (human MAdCAM protein) | binding result (mouse MAdCAM protein) |
| --- | --- | --- | --- | --- | --- |
| human IL-2M fused N-terminally to human IgG1 Fc domain (SEQ ID NO: 57) (Fc fusion, also called IL-2 N88D V69A, Q74P-G4Sx4-Fc) APTSSSTKKTQLQLEHLLLDLQMILNGINNYKNPKLTRMLTFKFYMPKKATELKHLQCLEEELKPLEEALNLAPSKNFHLRPRDLISDINVIVLELKGSETTFMCEYADETATIVEFLNRWITFSQSIISTLTGGGGSGGGGSGGGGSGGGGSDKTHTCPPCPAPEAAGAPSVFLFPPKPKDTLMISRTPEVTCVVVDVSHEDPEVKFNWYVDGVEVHNAKTKPREEQYNSTYRVVSVLTVLHQDWLNGKEYKCKVSNKALPAPIEKTISKAKGQPREPQVYTLPPSREEMTKNQVSLTCLVKGFYPSDIAVEWESNGQPENNYKTTPPVLDSDGSFFLYSKLTVDKSRWQQGNVFSCSVMHEALHNHYTQKSLSLSPG | < 1 |  |  |  |  |
| IL-2M SEQ ID NO: 56 (Fc fusion, also called IL-2 L118I N88D V69A, Q74P, C125S-G4Sx4-Fc) APTSSSTKKTQLQLEHLLLDLQMILNGINNYKNPKLTRMLTFKFYMPKKATELKHLQCLEEELKPLEEALNLAPSKNFHLRPRDLISDINVIVLELKGSETTFMCEYADETATIVEFINRWITFSQSIISTLTGGGGSGGGGSGGGGSGGGGSDKTHTCPPCPAPEAAGAPSVFLFPPKPKDTLMISRTPEVTCVVVDVSHEDPEVKFNWYVDGVEVHNAKTKPREEQYNSTYRVVSVLTVLHQDWLNGKEYKCKVSNKALPAPIEKTISKAKGQPREPQVYTLPPSREEMTKNQVSLTCLVKGFYPSDIAVEWESNGQPENNYKTTPPVLDSDGSFFLYSKLTVDKSRWQQGNVFSCSVMHEALHNHYTQKSLSLSPG | < 1 |  |  |  |  |
| MAdCAM antibody Clone ID 23 of Table 6 (scFv) (scFv) scFv: EVQLLESGGGLVQPGGSLRLSCAASGFTFSSYAMHWVRQAPGKGLEWVSGISGSGGSAYYADSVKGRFTISRDNSKNTLYLQMNSLRAEDTAVYYCATSQAPVDYYYYGMDVWGQGTTVTVSSGGGGSGGGGSGGGGSGGGGSDIQMTQSPSSLSASVGDRVTITCRASQSISSWLAWYQQKPGKAPKLLIYAASNLQRGVPSRFSGSGSGTDFTLTISSLQPEDFATYYCQQSYSIPITFGQGTKVEIK |  | no binding | binds | binds | no binding |
| MAdCAM antibody Clone ID 20 of Table 6 (scFv) (scFv) scFv: EVQLLESGGGLVQPGGSLRLSCAASGFTFDDYAMHWVRQAPGKGLEWVSYIDTSSSHLYYADSVKGRFTISRDNSKNTLYLQMNSLRAEDTAVYYCARDEAAAGYYGMDVWGQGTTVTVSSGGGGSGGGGSGGGGSGGGGSDIQMTQSPSSLSASVGDRVTITCQAGQDISNYLNWYQQKPGKAPKLLIYDASNLETGVPSRFSGSGSGTDFTLTISSLQPEDFATYYCQQTYSTPITFGQGTKLEIK |  | no binding | binds | binds | no binding |

Other lines, results leading:

| EC50 (CD25) [nM] | binding result [1] | binding result [2] | binding result (human MAdCAM protein) | binding result (mouse MAdCAM protein) | Binder |
| --- | --- | --- | --- | --- | --- |
| < 1 |  |  |  |  | IL-2M SEQ ID NO: 53 (Fc fusion, also called IL-2 L53I N88D V69A, Q74P, C125S-G4Sx4-Fc) APTSSSTKKTQLQLEHLLLDLQMILNGINNYKNPKLTRMLTFKFYMPKKATEIKHLQCLEEELKPLEEALNLAPSKNFHLRPRDLISDINVIVLELKGSETTFMCEYADETATIVEFLNRWITFSQSIISTLTGGGGSGGGGSGGGGSGGGGSDKTHTCPPCPAPEAAGAPSVFLFPPKPKDTLMISRTPEVTCVVVDVSHEDPEVKFNWYVDGVEVHNAKTKPREEQYNSTYRVVSVLTVLHQDWLNGKEYKCKVSNKALPAPIEKTISKAKGQPREPQVYTLPPSREEMTKNQVSLTCLVKGFYPSDIAVEWESNGQPENNYKTTPPVLDSDGSFFLYSKLTVDKSRWQQGNVFSCSVMHEALHNHYTQKSLSLSPG |
| < 1 |  |  |  |  | IL-2M SEQ ID NO: 55 (Fc fusion, also called IL-2 L80I N88D V69A, C125S Q74P-G4Sx4-Fc) APTSSSTKKTQLQLEHLLLDLQMILNGINNYKNPKLTRMLTFKFYMPKKATELKHLQCLEEELKPLEEALNLAPSKNFHIRPRDLISDINVIVLELKGSETTFMCEYADETATIVEFLNRWITFSQSIISTLTGGGGSGGGGSGGGGSGGGGSDKTHTCPPCPAPEAAGAPSVFLFPPKPKDTLMISRTPEVTCVVVDVSHEDPEVKFNWYVDGVEVHNAKTKPREEQYNSTYRVVSVLTVLHQDWLNGKEYKCKVSNKALPAPIEKTISKAKGQPREPQVYTLPPSREEMTKNQVSLTCLVKGFYPSDIAVEWESNGQPENNYKTTPPVLDSDGSFFLYSKLTVDKSRWQQGNVFSCSVMHEALHNHYTQKSLSLSPG |
| < 1 |  |  |  |  | IL-2M SEQ ID NO: 54 (Fc fusion, also called IL-2 L56I N88D V69A, Q74P, C125S-G4Sx4-Fc) APTSSSTKKTQLQLEHLLLDLQMILNGINNYKNPKLTRMLTFKFYMPKKATELKHIQCLEEELKPLEEALNLAPSKNFHLRPRDLISDINVIVLELKGSETTFMCEYADETATIVEFLNRWITFSQSIISTLTGGGGSGGGGSGGGGSGGGGSDKTHTCPPCPAPEAAGAPSVFLFPPKPKDTLMISRTPEVTCVVVDVSHEDPEVKFNWYVDGVEVHNAKTKPREEQYNSTYRVVSVLTVLHQDWLNGKEYKCKVSNKALPAPIEKTISKAKGQPREPQVYTLPPSREEMTKNQVSLTCLVKGFYPSDIAVEWESNGQPENNYKTTPPVLDSDGSFFLYSKLTVDKSRWQQGNVFSCSVMHEALHNHYTQKSLSLSPG |
